This assay concerns the target C3d (human), P01024. The assay is described as follows: SPR; C3d amine-coupled to a different flow cell of the same C1 chip; CFH (from 2.5 to 0.019 uM), or 0.6 uM CFH premixed with 1.2 uM PspCN, flowed over; equilibrium plots. The settings on record: remark: other sources report otherwise. A general note: SPR reads the build-up and loss of mass on a sensor chip optically.

Sequence of C3d (human), P01024 (P01024 1002-1303): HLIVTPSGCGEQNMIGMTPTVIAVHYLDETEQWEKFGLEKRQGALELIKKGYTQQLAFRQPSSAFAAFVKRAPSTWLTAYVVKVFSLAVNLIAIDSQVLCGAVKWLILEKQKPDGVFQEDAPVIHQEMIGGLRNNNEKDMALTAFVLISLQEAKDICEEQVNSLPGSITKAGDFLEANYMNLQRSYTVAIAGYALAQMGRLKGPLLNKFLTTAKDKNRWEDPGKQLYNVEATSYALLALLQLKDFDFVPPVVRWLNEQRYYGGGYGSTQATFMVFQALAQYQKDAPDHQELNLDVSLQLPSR

B1: V62-CFH (recombinant human complement factor H, variant Val-62, Tyr-402, Glu-936), P08603 19-1231 (natural protein)
chain: EDCNELPPRRNTEILTGSWSDQTYPEGTQAIYKCRPGYRSLGNVIMVCRKGEWVALNPLRKCQKRPCGHPGDTPFGTFTLTGGNVFEYGVKAVYTCNEGYQLLGEINYRECDTDGWTNDIPICEVVKCLPVTAPENGKIVSSAMEPDREYHFGQAVRFVCNSGYKIEGDEEMHCSDDGFWSKEKPKCVEISCKSPDVINGSPISQKIIYKENERFQYKCNMGYEYSERGDAVCTESGWRPLPSCEEKSCDNPYIPNGDYSPLRIKHRTGDEITYQCRNGFYPATRGNTAKCTSTGWIPAPRCTLKPCDYPDIKHGGLYHENMRRPYFPVAVGKYYSYYCDEHFETPSGSYWDHIHCTQDGWSPAVPCLRKCYFPYLENGYNQNYGRKFVQGKSIDVACHPGYALPKAQTTVTCMENGWSPTPRCIRVKTCSKSSIDIENGFISESQYTYALKEKAKYQCKLGYVTADGETSGSITCGKDGWSAQPTCIKSCDIPVFMNARTKNDFTWFKLNDTLDYECHDGYESNTGSTTGSIVCGYNGWSDLPICYERECELPKIDVHLVPDRKKDQYKVGEVLKFSCKPGFTIVGPNSVQCYHFGLSPDLPICKEQVQSCGPPPELLNGNVKEKTKEEYGHSEVVEYYCNPRFLMKGPNKIQCVDGEWTTLPVCIVEESTCGDIPELEHGWAQLSSPPYYYGDSVEFNCSESFTMIGHRSITCIHGVWTQLPQCVAIDKLKKCKSSNLIILEEHLKNKKEFDHNSNIRYRCRGKEGWIHTVCINGRWDPEVNCSMAQIQLCPPPPQIPNSHNMTTTLNYRDGEKVSVLCQENYLIQEGEEITCKDGRWQSIPLCVEKIPCSQPPQIEHGTINSSRSSQESYAHGTKLSYTCEGGFRISEENETTCYMGKWSSPPQCEGLPCKSPPEISHGVVAHMSDSYQYGEEVTYKCFEGFGIDGPAIAKCLGEKWSHPPSCIKTDCLSLPSFENAIPMGEKKDVYKAGEQVTYTCATYYKMDGASNVTCINSRWTGRPTCRDTSCVNPPTVQNAYIVSRQMSKYPSGERVRYQCRSPYEMFGDEEVMCLNGNWTEPPQCKDSTGKCGPPPPIDNGDITSFPLSVYAPASSVEYQCQNLYQLEGNKRITCRNGQWSEPPKCLHPCVISREIMENYNIALRWTAKQKLYSRTGESVEFVCKRGYRLSSRSHTLRTTCWDGKLEYPTCAKR
modifications: here or on the partner: N-glycans trimmed to the first GlcNAc residues (EndoHf)
Broadly, the Kd is the free concentration of one partner at which half of the binding sites on the other are occupied at equilibrium, for simple one-to-one binding. The low end stands for a tighter complex, the high end for a looser complex. With B1, the Kd was 2100 nM.

Values taken from PMC5555194.
